From patent US20250339531A1, “DUX4 POLYPEPTIDES AND NUCLEIC ACIDS FOR TREATING INFLAMMATORY AND AUTOIMMUNE CONDITIONS” (Fred Hutchinson Cancer Center, priority 2021, published 2025)

Test system: proteins that co-immunoprecipitated with DUX4-CTD constructs expressed in MB135 myoblasts
Assay: LC-MS of proteins co-immunoprecipitated with DUX4-CTD (Table 1) and western validation
Format: binding, human
Set-up: key to 4. mL1dL2 + Dox + IFNG / 4. + IFNG mix / 4. longCTD + Dox + IFNG / 3. + IFNg + Dox longCTD / 3. + Dox longCTD / 3. + IFNG longCTD: peptide-spectrum matches (PSMs) per protein
Settings: for 4. longCTD + Dox + IFNG: LC-MS counts of the listed protein co-immunoprecipitated with DUX4-CTD bait longCTD, experiment 4, Dox + IFNG; for 3. + IFNg + Dox longCTD: experiment 3, IFNg + Dox; for SUM of PSMS: sum over all samples
In short: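 FLAG-tagged DUX4-CTD expressed in doxycycline-induced MB135 myoblasts, some also IFNG-treated; nuclear lysates in pH 7.4 NP-40 IP buffer were pre-cleared, then anti-FLAG immunoprecipitated 3 h at 4 °C. For LC-MS, FLAG-peptide elution, in-gel trypsin digest, Orbitrap analysis; proteins with ≥2 PSMs in both experiments categorised and ranked by total PSMs.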

B1: Q6NZI2 (protein, UniProt Q6NZI2 1-390, looked up)
chain: MEDPTLYIVERPLPGYPDAEAPEPSSAGAQAAEEPSGAGSEELIKSDQVNGVLVLSLLDKIIGAVDQIQLTQAQLEERQAEMEGAVQSIQGELSKLGKAHATTSNTVSKLLEKVRKVSVNVKTVRGSLERQAGQIKKLEVNEAELLRRRNFKVMIYQDEVKLPAKLSISKSLKESEALPEKEGEELGEGERPEEDAAALELSSDEAVEVEEVIEESRAERIKRSGLRRVDDFKKAFSKEKMEKTKVRTRENLEKTRLKTKENLEKTRHTLEKRMNKLGTRLVPAERREKLKTSRDKLRKSFTPDHVVYARSKTAVYKVPPFTFHVKKIREGQVEVLKATEMVEVGADDDEGGAERGEAGDLRRGSSPDVHALLEITEESDAVLVDKSDSD
modifications: full-length
In the case of B1, the “4. longCTD + Dox + IFNG” value is reported as 16, the “3. + IFNg + Dox longCTD” value (bait longCTD) is reported as 3 and the “SUM of PSMS” value is reported as 42.

B2: Q16643 (protein, UniProt Q16643 1-649, looked up)
chain: MAGVSFSGHRLELLAAYEEVIREESAADWALYTYEDGSDDLKLAASGEGGLQELSGHFENQKVMYGFCSVKDSQAALPKYVLINWVGEDVPDARKCACASHVAKVAEFFQGVDVIVNASSVEDIDAGAIGQRLSNGLARLSSPVLHRLRLREDENAEPVGTTYQKTDAAVEMKRINREQFWEQAKKEEELRKEEERKKALDERLRFEQERMEQERQEQEERERRYREREQQIEEHRRKQQTLEAEEAKRRLKEQSIFGDHRDEEEETHMKKSESEVEEAAAIIAQRPDNPREFFKQQERVASASAGSCDVPSPFNHRPGSHLDSHRRMAPTPIPTRSPSDSSTASTPVAEQIERALDEVTSSQPPPLPPPPPPAQETQEPSPILDSEETRAAAPQAWAGPMEEPPQAQAPPRGPGSPAEDLMFMESAEQAVLAAPVEPATADATEIHDAADTIETDTATADTTVANNVPPAATSLIDLWPGNGEGASTLQGEPRAPTPPSGTEVTLAEVPLLDEVAPEPLLPAGEGCATLLNFDELPEPPATFCDPEEVEGESLAAPQTPTLPSALEELEQEQEPEPHLLTNGETTQKEGTQASEGYFSQSQEEEFAQSEELCAKAPPPVFYNKPPEIDITCWDADPVPEEEEGFEGGD
modifications: full-length
In the case of B2, the “4. longCTD + Dox + IFNG” value is reported as 33, the “3. + Dox longCTD” value (bait longCTD, experiment 3, Dox only) is reported as 3 and the “3. + IFNg + Dox longCTD” value (bait longCTD) is reported as 13. The “SUM of PSMS” value was 51.

B3: P02545 (protein, UniProt P02545 1-664, looked up)
chain: METPSQRRATRSGAQASSTPLSPTRITRLQEKEDLQELNDRLAVYIDRVRSLETENAGLRLRITESEEVVSREVSGIKAAYEAELGDARKTLDSVAKERARLQLELSKVREEFKELKARNTKKEGDLIAAQARLKDLEALLNSKEAALSTALSEKRTLEGELHDLRGQVAKLEAALGEAKKQLQDEMLRRVDAENRLQTMKEELDFQKNIYSEELRETKRRHETRLVEIDNGKQREFESRLADALQELRAQHEDQVEQYKKELEKTYSAKLDNARQSAERNSNLVGAAHEELQQSRIRIDSLSAQLSQLQKQLAAKEAKLRDLEDSLARERDTSRRLLAEKEREMAEMRARMQQQLDEYQELLDIKLALDMEIHAYRKLLEGEEERLRLSPSPTSQRSRGRASSHSSQTQGGGSVTKKRKLESTESRSSFSQHARTSGRVAVEEVDEEGKFVRLRNKSNEDQSMGNWQIKRQNGDDPLLTYRFPPKFTLKAGQVVTIWAAGAGATHSPPTDLVWKAQNTWGCGNSLRTALINSTGEEVAMRKLVRSVTVVEDDEDEDGDDLLHHHHGSHCSSSGDPAEYNLRSRTVLCGTCGQPADKASASGSGAQVGGPISSGSSASSVTVTRSYRSVGGSGGGSFGDNLVTRSYLLGNSSPRTQSPQNCSIM
modifications: full-length
For B3, the “4. longCTD + Dox + IFNG” value was 6, the “3. + IFNg + Dox longCTD” value (bait longCTD) was 3 and the “SUM of PSMS” value was 21.
